Several values for one entry are separate records, joined by “and”; a condition that tells them apart may be missing. Equal entries are not always repeated. Entries after “also recorded” stand apart in the source; their conditions may differ.
Columns and labels:
[1] = Multivariate fit of the phase diagram of ELP monoblock copolymers; type: physicochemical; details: for Tc: critical transition temperature; for n: dependence on inverse of ELP length; for m: dependence on natural logarithm of concentration; for K: interaction term between length and concentration
From the text: The Tt of the ELP component can be modified by varying ELP chain length, as the Tt generally increases with decreasing MW. For polypeptides having a molecular weight >100,000, the hydrophobicity scale developed by Urry et al. (PCT/US96/05186, which is hereby incorporated by reference in its entirety) is preferred for predicting the approximate Tt of a specific ELP sequence. However, in some embodiments, ELP component length can be kept relatively small, while maintaining a target Tt, by incorporating a larger fraction of hydrophobic guest residues (e.g., amino acid residues having hydrophobic side chains) in the ELP sequence. For polypeptides having a molecular weight <100,000, the Tt may be predicted or determined by the following function:
[formula] where Tc is a critical transition temperature, m is the dependence on the natural logarithm of concentration, n is the dependence on the inverse of the ELP length l, and k is an interaction term between length and concentration.

[2] = CsA encapsulation by two-phase solvent evaporation, RP-HPLC; type: physicochemical; details: for CsA loading compared with a comparator: in words
Method: The mixture was incubated at 37° C. and samples were collected at different time points up to 48 h.
This was followed by high-speed centrifugation and filtration to remove the excess insoluble drug. […] The mobile phase flow rate was set to 1.0 ml/min. The linear gradient from 20% to 95% of methanol was applied from 0 to 5 min. Then the mobile phase was changed to 95% methanol isocratic flow for 10 min.
This was followed by high-speed centrifugation and filtration to remove the excess insoluble drug. The loading ratio was then determined by reversed-phase high-performance liquid chromatography (RP-HPLC) analysis method.
The drug loading capability of 2nd and 3rd generation carriers were also tested using the same encapsulation method detailed above employing the method of Shi, et al., 2013.

human albumin = human albumin (Homo sapiens, UniProt P02768); experiment: Competition of CsA-loaded CA192 against human albumin (1 mM, 37° C.); type: in vitro ADME; details: 48 h
Method: Per molecule of protein, CA192 (SEQ ID NO: 3) binds 10× more drug than albumin. […] The mixture was incubated at 37° C. and samples were collected at different time points up to 48 h. The ELP phase separation was induced to purify CA192 (SEQ ID NO: 3) from the mixture with Albumin, which was—followed by RP-HPLC analysis. (FIG. 4C) Instead of albumin, lipoproteins in the plasma, mainly high-(HDL) and low-(LDL) density lipoprotein, predominantly bind to cyclosporine in the plasma. Thus, CA192-CsA was also tested against mouse plasma over a period of 48 hr.
Samples were collected from the dialysis cassette at different time points between 0 and 192 h and analyzed by RP-HPLC. […] The same drug release experiment was performed using CA192 dimer obtained via SEC. Dialysis was performed against PBS at 37° C. (FIG. 3B) and 4° C. (FIG. 3C). To further validate the release profile, as a control group, with the same encapsulation method, human albumin was explored to load CsA. […] The mixture was incubated at 37° C. and samples were collected at different time points up to 48 h. Another round of […] was performed to purify CA192 from the mixture, followed by RP-HPLC analysis. […] Similar to this competition method against albumin, 300 μM CA192-CsA in PBS was diluted 1:1 in mouse plasma to achieve a final concentration of 150 μM. […]

[3] = Phase transition temperature by optical density (UV-Vis, 350 nm) versus temperature; type: physicochemical; details: for Transition temperature (Tt): at 25 μM, 1° C./min; for Slope, m: fit Tt = b - m Log10[CELP]; for Intercept, b: intercept at 1 μM
Method: The temperature with the maximum positive slope was defined as the phase transition temperature for each condition. (FIG. 2B) The concentration-temperature phase diagram was determined for both ELPs, and fit to the following equation: Tt=b−m Log10[CELP].
Both ELPs at different concentrations (5 μM to 100 μM) were subject to a precisely controlled temperature increase from 25 to 75° C. at a rate of 1° C./min. The Tt of ELPs is defined as the temperature at which the first derivative of the optical density with respect to the temperature reaches a maximum.

HeLa cells = experiment: HeLa cell uptake, co-localization with lysosomes (confocal microscopy); type: cell-based; details: 30 μM rhodamine-labeled ELP; 120 min; LysoTracker Green
Method: Lysosomes were labeled by LysoTracker Green® having the structure:
In order to further validate the potential efficacy of CA192 working as a potent drug binding domain, an in vitro cell uptake study was performed. Briefly, CA192 and A192 was labeled with rhodamine and HeLa cell lysosome with LysoTracker Green (LTG)® having the structure as described herein. For the treatment group, HeLa cells were incubated with 30 μM of rhodamine-labeled (rh)-CA192 and 70 nM of LTG for 120 min. For the control group, HeLa cells were incubated with 30 μM of rhodamine-labeled (rh)-A192 and 70 nM of LTG for 120 min. Cells were then rinsed with warm HBSS three times, maintained in the fresh culture medium, and imaged by confocal microscopy. Images were acquired using a Zeiss laser scanning microscope 510 Meta NLO confocal imaging system equipped with Argon, red HeNe, green HeNe laser, and a Coherent Chameleon Ti-Sapphire laser (LSM) mounted on a vibration-free table (Carl Zeiss, Thornwood, N.Y.). All images were acquired using a Plan-Apochromat 63× Oil immersion lens with a working distance of 0.19 mm.

[4] = Dynamic light scattering (DLS) hydrodynamic radius and stability; type: physicochemical
Method: FIGS. 5A-5D: CA192 (SEQ ID NO: 3) has a good stability in terms of hydrodynamic radius. There are two fractions present in the CA192 (SEQ ID NO: 3) solution: an aggregated form and dimeric form. A dimerized form has similar hydrodynamic radius, Rh as A192. […] Drug-loaded CA192 (SEQ ID NO: 3) has a mean Rh of 64.5±0.5 nm (p<0.05). […] (FIG. 5C) Size Exclusion Chromatography (SEC) was conducted to fractionate CA192 (SEQ ID NO: 3) depending on their particle size. Two fractions were observed. […] In contrast, the fraction 1 contains a mixture of larger aggregates.
The hydrodynamic radius (Rh) of both the loaded and unloaded fusion protein, along with plain A192, was measured via dynamic light scattering (DLS) using a DynaPro Plate Reader II from Wyatt Technology. Before the DLS measurement, solutions were filtered through […] pore size filters. The concentration of each solution was then adjusted to 20 μM. 60 μL from each sample was pipetted into three different wells on the plate reader and covered by 15 μL mineral oil each to avoid solvent evaporation. Centrifugation was then performed to remove air bubbles. […] Based on this DLS method, Applicants performed a stability assay to explore the stability of the fusion protein by measuring the mean Rh shift during incubation at physiological temperature. Briefly, the fusion solution was incubated at 37° C. for different periods of time up to 48 h and the mean Rh of CA192 at these different time points was measured with DLS. […] There might be some slight aggregation occurring in the CA192 protein solution. […] To determine if this was the case, further separation was conducted with size exclusion chromatography (SEC). This process was performed at 4° C. using a Hiload 26/600 column (26×600 mm, particle size 24-44 μM). […] Fragments with absorption above 10 mAu were collected and concentrated with a Spin-X concentrator (pore size 10 kDa). […] (FIG. 5D) Through measuring the CA192 concentration of both fractions, Applicants determined that 20.8% by mass in solution is represented by the multimerized particles. […]

[5] = SEC / Multi-Angle Static Light Scattering (MALS) of CA192 fractions; type: physicochemical
Method: The hydrodynamic radius (Rh) of both the loaded and unloaded fusion protein, along with plain A192, was measured via dynamic light scattering (DLS) using a DynaPro Plate Reader II from Wyatt Technology. Before the DLS measurement, solutions were filtered through […] pore size filters. The concentration of each solution was then adjusted to 20 μM. 60 μL from each sample was pipetted into three different wells on the plate reader and covered by 15 μL mineral oil each to avoid solvent evaporation. Centrifugation was then performed to remove air bubbles. […] Based on this DLS method, Applicants performed a stability assay to explore the stability of the fusion protein by measuring the mean Rh shift during incubation at physiological temperature. Briefly, the fusion solution was incubated at 37° C. for different periods of time up to 48 h and the mean Rh of CA192 at these different time points was measured with DLS. […] There might be some slight aggregation occurring in the CA192 protein solution. […] To determine if this was the case, further separation was conducted with size exclusion chromatography (SEC). This process was performed at 4° C. using a Hiload 26/600 column (26×600 mm, particle size 24-44 μM). […] Fragments with absorption above 10 mAu were collected and concentrated with a Spin-X concentrator (pore size 10 kDa). Two fractions were observed after SEC separation (FIG. 5C). […] (FIG. 5D) Through measuring the CA192 concentration of both fractions, Applicants determined that 20.8% by mass in solution is represented by the multimerized particles. Multi-Angle static Light Scattering (MALS) was then applied to evaluate the aggregation and oligomeric state of CA192. […] Thus, it was concluded that the CA192 fusion protein is mostly maintained as dimerized nanoparticles with a 6.5 nm hydrodynamic radius.
To further evaluate the aggregation and oligomeric state of each fraction, Multi-Angle Static Light Scattering (MALS) was then used to measure the molecular weight of both peaks. […] Similarly, fraction 1 was identified as aggregated form. […]

Substance: (Val-Pro-Gly-Ile-Gly): ELP monoblock library, SEQ ID NO: 63 (VPGIG)
- Tc [1]: 13.0 ± 0.6 °C
- n [1]: 760 ± 30 °C pentamers
- m [1]: 0 ° C./ln(μM)
- K [1]: −81.2 ± 7.9 °C pentamers/ln(μM)

Substance: (Val-Pro-Gly-Ser-Gly): ELP monoblock library, SEQ ID NO: 60 (VPGSG)
- Tc [1]: 63.6 ± 1.1 °C
- m [1]: −1.86 ± 0.31 ° C./ln(μM)
- K [1]: 0 °C pentamers/ln(μM)

Substance: (Val-Pro-Gly-Val-Gly): ELP monoblock library, SEQ ID NO: 62 (VPGVG)
- Tc [1]: 21.2 ± 0.9 °C
- n [1]: 1607 ± 90 °C pentamers
- m [1]: 0 ° C./ln(μM)
- K [1]: −163.1 ± 23.3 °C pentamers/ln(μM)

Substance: CA96C: 2nd generation carrier CypA-A96-CypA, SEQ ID NO: 8
- CsA loading ratio ([2]; FIG. 16): 127.5%

Substance: CA192: cyclophilin A fused to ELP A192, SEQ ID NO: 3
- transfer of CsA from CA192 to albumin (human albumin): No significant drug loss; also recorded: unable to extract CsA
- CsA loading compared with a comparator [2]: significantly more drug than albumin
- Transition temperature (Tt) [3]: 45.4 °C
- Slope, m ([3]; mean ± 95% CI, Table 2): 1.3 ° C./Log10(μM) and 1.3 ± 0.27 ° C./Log10(μM)
- Intercept, b ([3]; mean ± 95% CI, Table 2): 47.1 °C and 47.1 ± 0.39 °C
- co-localization with lysosomes (HeLa cells): obvious co-localization with lysosome; also recorded: co-localized with lysosomes; also recorded: co-localizing with lysosomes
- stability of Rh ([4]; 37° C., up to 48 h): well maintained throughout 48 h; also recorded: no significant hydrodynamic radius shift; also recorded: stability over 2 days
- mean hydrodynamic radius (Rh) ([4]; DLS intensity, 20 μM): 64.8±0.7 nm
- Mass Fraction, Fraction 1 (Nano-aggregated form) ([5]; MALS): 10.1%
- Mass Fraction, Fraction 2 (Dimeric form) ([5]; MALS): 89.9%
- multimerized particles in solution ([5]; from CA192 concentration of both SEC fractions): 20.8 % by mass

Substance: CV96: cyclophilin A fused to ELP V96, SEQ ID NO: 4
- CsA loading compared with a comparator [2]: higher loading ratio
- Transition temperature (Tt) [3]: 31.2 °C
- Slope, m ([3]; Table 3): 4.4 ° C./Log10(μm)
- Intercept, b ([3]; Table 3): 36.8 °C

Substance: dimerized CA192: dimeric fraction of CA192 isolated by size exclusion chromatography
- Transition temperature (Tt) [3]: 49.3 °C
- hydrodynamic radius (Rh) after SEC ([4]; 99.2% by mass of fraction 2): 6.5±0.1 nm

— patent publication US11464867B2, “Multimeric elastin-like polypeptides” (University of Southern California, priority 2018, dated 2022)
